Data as given in paper PMC11109279, “Heliorhodopsin-mediated light-modulation of ABC transporter” (Nature Communications, 2024).

What was measured:
OmrE (OmrE-His) [1] = biological target: T1, OmrE (OmrE-His) (Omithinimicrobium cerasi strain USBA17B2, UniProt A0A285VWG3 1-661); test: ITC; replicate #3
T1 chain: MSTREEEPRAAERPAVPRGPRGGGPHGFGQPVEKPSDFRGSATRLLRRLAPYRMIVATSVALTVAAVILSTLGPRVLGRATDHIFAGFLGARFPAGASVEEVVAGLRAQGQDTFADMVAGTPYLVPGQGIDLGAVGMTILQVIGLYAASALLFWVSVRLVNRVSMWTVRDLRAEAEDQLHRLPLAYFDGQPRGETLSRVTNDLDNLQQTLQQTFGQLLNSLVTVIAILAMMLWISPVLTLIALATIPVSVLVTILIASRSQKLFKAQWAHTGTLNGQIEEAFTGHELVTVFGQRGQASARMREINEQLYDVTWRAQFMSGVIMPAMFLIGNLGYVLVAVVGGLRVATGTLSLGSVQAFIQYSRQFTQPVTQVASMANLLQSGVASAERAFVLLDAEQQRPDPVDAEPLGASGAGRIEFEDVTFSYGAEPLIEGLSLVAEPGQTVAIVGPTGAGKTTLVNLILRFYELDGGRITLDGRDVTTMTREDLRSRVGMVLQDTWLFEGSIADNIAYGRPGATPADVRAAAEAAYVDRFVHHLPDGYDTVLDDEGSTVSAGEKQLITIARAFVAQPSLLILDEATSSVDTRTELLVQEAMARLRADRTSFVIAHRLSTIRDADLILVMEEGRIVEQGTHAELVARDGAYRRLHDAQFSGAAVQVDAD

[2] = biological target: T2, NBD-truncated OmrDE (OmrD^tcE^tc) (Omithinimicrobium cerasi strain USBA17B2); test: ITC; replicate #3
T2 chain 1: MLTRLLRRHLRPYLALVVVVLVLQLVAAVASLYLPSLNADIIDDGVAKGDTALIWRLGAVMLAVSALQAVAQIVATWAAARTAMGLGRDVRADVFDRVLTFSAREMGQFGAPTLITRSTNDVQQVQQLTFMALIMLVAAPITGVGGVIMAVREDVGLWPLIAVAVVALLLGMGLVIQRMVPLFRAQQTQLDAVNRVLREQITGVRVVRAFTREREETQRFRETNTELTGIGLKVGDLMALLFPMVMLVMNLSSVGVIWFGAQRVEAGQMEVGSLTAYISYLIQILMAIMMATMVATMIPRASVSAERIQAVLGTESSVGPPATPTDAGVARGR
T2 chain 2: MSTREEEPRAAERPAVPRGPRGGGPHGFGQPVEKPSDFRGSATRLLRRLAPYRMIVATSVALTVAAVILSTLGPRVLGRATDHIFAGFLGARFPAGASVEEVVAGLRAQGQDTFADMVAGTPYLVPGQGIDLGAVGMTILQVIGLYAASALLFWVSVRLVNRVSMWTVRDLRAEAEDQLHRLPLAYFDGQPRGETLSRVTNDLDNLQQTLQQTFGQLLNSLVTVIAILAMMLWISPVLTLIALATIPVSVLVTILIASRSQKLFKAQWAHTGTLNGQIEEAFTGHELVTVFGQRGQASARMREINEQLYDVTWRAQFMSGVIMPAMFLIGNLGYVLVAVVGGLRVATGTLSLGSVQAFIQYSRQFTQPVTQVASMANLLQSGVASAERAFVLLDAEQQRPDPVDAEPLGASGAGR

[3] = biological target: T3, heterodimeric multidrug resistance ABC transporter OmrDE (Omithinimicrobium cerasi strain USBA17B2, UniProt A0A285VW85 1-577; A0A285VWG3 1-661); test: ITC; OcHeR injected into the Omr protein; 25 °C, 500 rpm; buffer SD; MicroCal ITC200; one site binding model (sequential binding site model for R233Q); perfect saturation was not achieved; settings: both partners purified
T3 construct: gene codon-optimized and synthesized; also called OmrDE heterodimer; source: E. coli C43 (DE3), OmrD and OmrE co-expressed, purified (DDM-solubilized membrane fraction, Ni2+-NTA agarose)
T3 sequence (looked up) 1: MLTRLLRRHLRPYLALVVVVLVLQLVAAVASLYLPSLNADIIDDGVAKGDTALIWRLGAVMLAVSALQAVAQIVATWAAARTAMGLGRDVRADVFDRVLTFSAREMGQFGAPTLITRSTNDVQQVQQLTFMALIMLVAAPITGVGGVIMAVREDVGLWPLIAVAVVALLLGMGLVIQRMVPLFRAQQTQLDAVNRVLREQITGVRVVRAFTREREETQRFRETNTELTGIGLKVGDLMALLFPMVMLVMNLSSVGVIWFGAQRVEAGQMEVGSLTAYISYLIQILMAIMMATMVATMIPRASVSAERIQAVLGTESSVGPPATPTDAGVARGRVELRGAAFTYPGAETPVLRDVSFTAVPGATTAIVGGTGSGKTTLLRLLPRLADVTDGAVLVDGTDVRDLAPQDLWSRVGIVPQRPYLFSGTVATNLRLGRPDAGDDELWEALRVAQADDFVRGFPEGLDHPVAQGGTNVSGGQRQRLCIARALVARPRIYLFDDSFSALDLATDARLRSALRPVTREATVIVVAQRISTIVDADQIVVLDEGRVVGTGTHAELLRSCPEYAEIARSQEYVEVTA
T3 sequence (looked up) 2: T1 chain

OmrE (OmrE-His) [4] = biological target: T4, OmrE (OmrE-His) (Omithinimicrobium cerasi strain USBA17B2, UniProt A0A285VWG3 1-661); test: as above; settings: both partners purified
T4 construct: OmrE-His calculated as 72.09 kDa; source: E. coli C43 (DE3), purified (DDM-solubilized membrane fraction, Ni2+-NTA agarose)
T4 sequence (looked up): T1 chain

OmrD (OmrD::his-tag) = biological target: T5, OmrD (OmrD::his-tag) (Omithinimicrobium cerasi strain USBA17B2, UniProt A0A285VW85 1-577); test: as above; settings: both partners purified
T5 construct: OmrD-His calculated as 62.86 kDa; also called pET21b-OmrD; source: E. coli C43 (DE3); purified (Ni2+-NTA agarose) for ITC; in DDM-solubilized membrane proteins for the His-tag pull-down
T5 sequence (looked up): T3 sequence (looked up) 1

[5] = biological target: T6, NBD-truncated OmrDE (OmrD^tcE^tc) (Omithinimicrobium cerasi strain USBA17B2); test: as above; settings: both partners purified
T6 chain 1: T2 chain 1
T6 chain 2: T2 chain 2

B1: Omithinimicrobium cerasi strain USBA17B2 heliorhodopsin (OcHeR) WT (natural protein, UniProt A0A285W045 1-266, looked up)
chain: MGSTGTGSTASTTRADESRYAGLRRYNVVAAVVHAAQAVAVVVLATDFTLPMTASYLAGPPGSPPGEAVTLWDVPIPLAIATFLALSALFHVIVASPPFFDRYRRGLAQGHNYFRWVEYSLSSSLMIVIIAQLVGISDVVALLGLFGVNASMILFGWLQEKYHQPGDGGWLPFVFGCLAGAVPWVGIVLYTIAPGSTSGAEPPGFVYGIIVSLFLFFNVFALVQWLQYRPVGRFRDYLLGERLYITLSLVAKSALAWQIFGGTLAT
modifications: retinal Schiff base linked to K252
notes: gene codon-optimized for E. coli and chemically synthesized; source: E. coli C43 (DE3), purified (DDM-solubilized membrane fraction, Ni2+-NTA agarose)
**Q.** How did the Kd (OmrE (OmrE-His) [1]) turn out when B1 was run?
**A.** 46 µM

**Q.** And the Kd [2]?
**A.** 46 µM

**Q.** What about the Kd [3] of the same binder?
**A.** 91.6 µM

**Q.** What about the dH [3] of the same binder?
**A.** 48.9 kcal/mol

**Q.** And the Kd (OmrE (OmrE-His) [4])?
**A.** 35.3 µM

**Q.** What about the dH (OmrE (OmrE-His) [4]) of the same binder?
**A.** 35.5 kcal/mol

**Q.** And the Kd (OmrD (OmrD::his-tag))?
**A.** 123 µM

**Q.** And the dH [5]?
**A.** -35.5 kcal/mol
